Laboratory results published in PMC2807034, “An Autoinhibitory Tyrosine Motif in the Cell-Cycle-Regulated Nek7 Kinase Is Released through Binding of Nek9” (Molecular Cell, 2009).

How the values were obtained:
Assay in all cases: pull-down; GST-fusion protein (20 pmol) immobilised on glutathione Sepharose 4B beads; incubated with 1 ml of 3.5 uM Nek7 protein for 2 hr; PD buffer (20 mM HEPES pH 7.5, 150 mM NaCl, 0.05% Tween 20); three 30 min washes at 4°C; anti-His6 immunoblot
Conditions in all cases: both partners purified
Nek7-Y28A/L31A = target: T1, Nek7-Y28A/L31A (human, UniProt Q8TDX7 1-302, Y28A | L31A)
T1 construct: Nek7, human, double point mutant of the full-length His6 construct (QuikChange); also called YA/LA; source: bacterially expressed and purified; not shown: His6, C-terminal, kept

Nek7-N33D = target: T2, Nek7-N33D (human, UniProt Q8TDX7 1-302, N33D)
T2 construct: Nek7, human, point mutant of the full-length His6 construct (QuikChange); also called ND; source: bacterially expressed and purified; not shown: His6, C-terminal, kept

[1] = target: T3, Nek7-Δ30, N-terminal truncation of Nek7 starting at residue 30 (human, UniProt Q8TDX7 30-302)
T3 construct: Nek7, human, truncation starting at residue 30; source: bacterially expressed and purified

[2] = target: T4, Nek7-Δ20, N-terminal truncation of Nek7 starting at residue 20 (human, UniProt Q8TDX7 20-302)
T4 construct: Nek7, human, truncation starting at residue 20; source: bacterially expressed and purified

[3] = target: T5, Nek7, wild-type, full-length human protein with C-terminal His6 tag (human, UniProt Q8TDX7 1-302)
T5 construct: Nek7 (NIMA-related kinase 7), human, full-length (35 kDa), cloned into pET30; The His6 tag is uncleavable; also called Nek7-WT; WT; source: E. coli Codonplus RPIL, coexpressed with lambda phosphatase, purified (HisTRAP, then dialysis or gel filtration); not shown: His6, C-terminal, kept

Measured: binding result

T1 sequence (Q8TDX7 whole entry Y28A/L31A): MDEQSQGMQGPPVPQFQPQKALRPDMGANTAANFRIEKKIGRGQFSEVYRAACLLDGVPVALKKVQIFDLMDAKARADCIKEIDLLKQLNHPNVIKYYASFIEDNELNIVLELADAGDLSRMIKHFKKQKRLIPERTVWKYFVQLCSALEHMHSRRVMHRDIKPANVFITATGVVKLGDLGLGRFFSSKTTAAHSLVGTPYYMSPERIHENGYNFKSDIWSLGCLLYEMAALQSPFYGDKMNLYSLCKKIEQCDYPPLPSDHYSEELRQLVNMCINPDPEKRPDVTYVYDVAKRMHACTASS
T2 sequence (Q8TDX7 whole entry N33D): as the sequence (Q8TDX7 whole entry Y28A/L31A) above, with A28Y, A31L, N33D counted along it
T3 sequence (Q8TDX7 30-302, stated change not applied): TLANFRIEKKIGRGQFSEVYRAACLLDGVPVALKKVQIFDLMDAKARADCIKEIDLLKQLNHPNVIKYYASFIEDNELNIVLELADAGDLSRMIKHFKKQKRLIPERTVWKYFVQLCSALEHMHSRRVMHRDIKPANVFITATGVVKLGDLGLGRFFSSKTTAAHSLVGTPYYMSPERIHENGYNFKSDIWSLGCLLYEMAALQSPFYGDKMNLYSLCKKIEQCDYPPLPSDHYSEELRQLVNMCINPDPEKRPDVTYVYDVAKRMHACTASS
T5 sequence (Q8TDX7 whole entry): as the sequence (Q8TDX7 whole entry Y28A/L31A) above, with A28Y, A31L counted along it
T4 sequence (Q8TDX7 20-302, stated change not applied): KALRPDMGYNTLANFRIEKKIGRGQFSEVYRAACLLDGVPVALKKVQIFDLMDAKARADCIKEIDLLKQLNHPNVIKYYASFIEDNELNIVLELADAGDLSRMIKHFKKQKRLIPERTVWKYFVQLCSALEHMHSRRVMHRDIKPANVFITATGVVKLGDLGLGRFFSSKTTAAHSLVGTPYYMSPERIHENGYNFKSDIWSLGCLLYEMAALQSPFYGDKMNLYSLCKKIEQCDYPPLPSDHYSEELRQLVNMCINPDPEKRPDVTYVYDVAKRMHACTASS

B1: GST-tagged C-terminal domain of human Nek9 (amino acids 706-960) (domain or fragment, UniProt Q8TD19 706-960, looked up)
chain: SLHHVPDLSCRGWHTILIVEKVLNSKTIRSNSSGLSIGTVFQSSSPGGGGGGGGGEEEDSQQESETPDPSGGFRGTMEADRGMEGLISPTEAMGNSNGASSSCPGWLRKELENAEFIPMPDSPSPLSAAFSESEKDTLPYEELQGLKVASEAPLEHKPQVEASSPRLNPAVTCAGKGTPLTPPACACSSLQVEVERLQGLVLKCLAEQQKLQQENLQIFTQLQKLNKKLEGGQQVGMHSKGTQTAKEEMEMDPKP
notes: Nek9, human, noncatalytic C-terminal domain (CTD), amino acids 706-960, cloned into pGEX-4T1; pGEX-4T1 normally places GST at the N-terminus; also called Nek9-CTD; GST-Nek9-CTD; source: E. coli Rosetta DE3, purified (glutathione Sepharose)
binds: all assays above
